Laboratory results: patent US7608683B2, “Stress proteins and peptides and methods of use thereof” (The Regents of the University of California, priority 2000, dated 2009)

System: PBMC of subjects with JIA
Assay: T cell proliferation assay, PBMC of subjects with JIA
Type: cell-based, human
Conditions: majority of JIA subjects; SI of 2 or higher positive

B1: whole human hsp60: whole human hsp60 protein (protein)
chain: MLRLPTVFRQMRPVSRVLAPHLTRAYAKDVKFGADARALMLQGVDLLADAVAVTMGPKGRTVIIEQGWGSPKVTKDGVTVAKSIDLKDKYKNIGAKLVQDVANNTNEEAGDGTTTATVLARSIAKEGFEKISKGANPVEIRRGVMLAVDAVIAELKKQSKPVTTPEEIAQVATISANGDKEIGNIISDAMKKVGRKGVITVKDGKTLNDELEIIEGMKFDRGYISPYFINTSKGQKCEFQDAYVLLSEKKISSIQSIVPALEIANAHRKPLVIIAEDVDGEALSTLVLNRLKVGLQVVAVKAPGFGDNRKNQLKDMAIATGGAVFGEEGLTLNLEDVQPHDLGKVGEVIVTKDDAMLLKGKGDKAQIEKRIQEIIEQLDVTTSEYEKEKLNERLAKLSDGVAVLKVGGTSDVEVNEKKDRVTDALNATRAAVEEGIVLGGGCALLRCIPALDSLTPANEDQKIGIEIIKRTLKIPAMTIAKNAGVEGSLIVEKIMQSSSEVGYDAMAGDFVNMVEKGIIDPTKVVTALLDAAGVASLLTTAEVVVTEIPKEEKDPGMGAMGGMGGGMGGGMF
modifications: Homo sapiens hsp60
notes: whole human hsp60 protein
T cell proliferative response to whole hsp60: positive T cell proliferative response
